Measurements: patent US20250353931A1 (CHIMERIS UK, published 2025)

Molecular target: CD3 on T cells (Jurkat T cells; primary human T cells) (human, UniProt P07766 23-207; P04234 22-171; P09693 23-182)
Test: flow cytometry on Jurkat T cells, APC-conjugated anti-His tag secondary antibody
Protocol: Each multi-specific reagent was then screened for binding to Jurkat T cells. Jurkat T cells were plated into individual wells of a 96-well plate (˜100,000 cells per well in 200 ul ImmunoCult™-XF T Cell Expansion Medium (StemCell Technologies)). […] As a control, CHO cell culture medium alone was added. Following incubation for two hours, cells were washed and stained in 50 μl FACS buffer (PBS (Gibco)/2% FBS (LabTech)) containing a 1/100 dilution of an APC-conjugated anti-His tag secondary antibody (BioLegend). Cells were washed again and resuspended in 100 μl FACS buffer plus 0.1 μg/ml DAPI live/dead staining dye (Roche). Cell samples were run on a MACSQuant® Analyzer 10 Flow Cytometer and analyzed using the FlowJo (v10) software.

Chain of CD3 on T cells (Jurkat T cells; primary human T cells) (P07766 23-207 limits assumed, chain 1 of 3): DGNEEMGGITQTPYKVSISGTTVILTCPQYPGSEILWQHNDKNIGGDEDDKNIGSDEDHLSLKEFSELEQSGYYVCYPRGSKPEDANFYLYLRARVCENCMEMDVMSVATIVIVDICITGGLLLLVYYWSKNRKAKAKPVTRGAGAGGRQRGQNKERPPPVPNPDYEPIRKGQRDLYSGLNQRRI
Chain of CD3 on T cells (Jurkat T cells; primary human T cells) (P04234 22-171 limits assumed, chain 2 of 3): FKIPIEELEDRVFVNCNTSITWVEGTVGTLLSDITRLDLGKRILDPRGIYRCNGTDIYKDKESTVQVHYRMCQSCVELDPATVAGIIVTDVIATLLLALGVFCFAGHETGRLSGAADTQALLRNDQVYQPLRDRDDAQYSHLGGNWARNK
Chain of CD3 on T cells (Jurkat T cells; primary human T cells) (P09693 23-182 limits assumed, chain 3 of 3): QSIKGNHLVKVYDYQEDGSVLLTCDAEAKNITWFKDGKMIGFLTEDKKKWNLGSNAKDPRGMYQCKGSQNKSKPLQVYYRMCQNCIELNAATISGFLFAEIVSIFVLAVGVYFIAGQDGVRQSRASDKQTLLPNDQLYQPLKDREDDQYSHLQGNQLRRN

B1: CM04P (anti-PEG _ anti-EpCAM) (bispecific antibody)
chain: QIQLVQSGPELKKPGETVKISCKASGYTFKNYGMNWVKQAPGKGLKWMGWINTYTGQPIYANDFKGRFAFSLETSASTAYLQINNLKNEDTATYFCARDWGPYWGQGTLVIVSASPNSASHSGSAPQTSSAPGSQNIMMTQSPSSLAVSAGEKVTVNCKSSQSVLYSSNQMNYLAWYQQKPGQSPKLLIYWASTRESGVPDRFTGSGSGTDFTLTISSVQTEDLAVYYCLQYLSSWTFGGGTKLEIKGGSSRSSSSGGGGSGGGGQVKLQQSGPELKKPGETVKISCKASGYTFTNYGMNWVKQAPGKGLKWMGWINTYTGESTYADDFKGRFAFSLETSASAAYLQINNLKNEDTATYFCARFAIKGDYWGQGTTVTVSSSPNSASHSGSAPQTSSAPGSQDIVLTQSPFSNPVTLGTSASISCRSTKSLLHSNGITYLYWYLQKPGQSPQLLIYQMSNLASGVPDRFSSSGSGTDFTLRISRVEAEDVGVYYCAQNLEIPRTFGGGTKLEIKGGGGSHHHHHHHH
notes: Intended as a negative control; also called αPEG/αEPCAM
B1: no binding (tested: 20 µl of CHO culture supernatant).
